According to US11827701B2, “IL-6 binding molecules” (argenx BV, priority 2012, dated 2023):
Several values for one entry are separate records, joined by “and”; a condition that tells them apart may be missing. Equal values may be shown once.

Columns and labels:
RXF393 cells = test: Renal cell cancer mouse xenograft model; assay type: in vivo; conditions: 3 mg/kg
Experimental: The in vivo efficacy of clones 68F2 was investigated in a renal cell cancer mouse xenograft model. […] Briefly, RXF393 cells (2×10^6) were injected subcutaneously at both lateral sides of a nude mouse. Tumors were allowed to grow to a volume between of 50 en 300 mm^3, prior to antibody administration. 90% of the injected mice developed a tumor. 40 mice were split into 5 groups of 8 mice. Each group was received intraperatoneal injection of either PBS (control) or a specific dose of clone 68F2 (1, 3, 10, or 30 mg/kg). Tumor size and survival was monitored twice per week.

[1] = Thermal stability (melting temperature), functional antibody measured in Biacore; assay type: physicochemical
Experimental: To examine the thermal stability of the germlined and the parental versions of 68F2 in full length human IgG1 format, antibody samples were incubated at a concentration of 100 μg/ml (in PBS) at 4, 50, 55, 60, 65, 70 and 75° C. for 1 hour. Following this, the samples were cooled down slowly during a period of 15 minutes to 25° C. and kept at this temperature for 2 hours, after which they were stored overnight at 4° C. Following centrifugation to remove precipitates (of denatured antibody), the concentration of functional antibody remaining in solution was measured using Biacore (1/10 dilution in PBS and 1/10 in HBSEP). The slope of the association curve obtained after injection on the IL-6 immobilized chip is a measure of the concentration of functional antibody.

[2] = Pharmacokinetic study, single intravenous dose; assay type: in vivo, cynomolgus monkey
Experimental: Pharmacokinetic analysis of antibody clone 129D3 formatted as various IgG1 molecules was performed. The following antibodies were analysed: Wild-type IgG1 129D3 (129D3-WT), IgG1 129D3 with the mutations M252Y/S254T/T256E in the Fc region (129D3-YTE), and IgG1 129D3 with the mutations H433K and N434F in the Fc region (129D3-HN).
Cynomolgus monkeys (3 per antibody tested) were injected intravenously with a single 5 mg/kg dose of 129D3-WT, 129D3-YTE, or 129D3-HN. Samples were taken at different time points and tested for plasma concentration of mAb by the ELISA. Specifically, a microtiterplate (Maxisorb Nunc) was coated with 1 ug/ml IL-6 (Immunotools) in PBS overnight at 4C. The plate was washed 2 times with PBS-Tween and blocked for 2 hours with 300 μl PBS-1% casein. After 2 washes with PBS-Tween, the samples were applied. All dilutions were made in 1% pooled blank plasma (this is a pool from 3 naive cynomolgus monkeys, see chapter 4.2). The samples were allowed to bind for 2 hours at RT. Plates were then washed 5 times with PBS-Tween and goat biotinilated anti-human IgG heavy and light chain monkey adsorbed polyclonal antibodies were applied at a 1000-fold dilution (Bethyl, catno: A80-319B) and allowed to bind for 1 hour at RT. After washing the plates 5 times with PBS-Tween, streptavidin conjugated with HRP (Jackson Immunoresearch 016-030-084) was applied at a 300,000-fold dilution and allowed to bind for 1 hour at RT. Plates were then washed 5 times with PBS-Tween and a 1:1 mixture of TMB (calbiochem CL07)-s(HS)TMB weakener (SDT, #sTMB-W) was added. The staining was allowed to proceed for 10 minutes and then stopped with 0.5 M […], after which the Optical Density was measured at 450 nm. The samples were analysed four times and 129D3-WT (from the same batch that was injected into the animals) was used for a standard curve.
The pharmacokinetic profiles for the different 129D3 IgG1 antibodies are shown graphically in FIG. 12 (the results are shown are the average result of the group of monkeys).

IGROV-1 epithelial cells = test: Epithelial ovarian cancer mouse xenograft (survival); assay type: in vivo; conditions: 4 or 20 mg/kg biweekly, nude mice
Experimental: The in vivo potency of clone 129D3 was determined using a mouse xenogaft model. IGROV-1 epithelial cells (5×10^6) were injected subcutaneously into nude mice. After three days, mice were administered 129D3 or CNTO328 biweekly, at a dosage of 4 or 20 mg/kg. There were 5 mice per group and 10 mice in the control group. Percentage survival of mice in each study group was determined each week and the results plotted as a survival curve.

[3] = Production level of IgG1 after transient expression in HEK293E cells; conditions: IgG1, protein A purified
Experimental: The VH and VL of the germlined versions of 68F2 were recloned in pUPE Heavy Chain and Light Chain expression vectors, respectively, for transient expression of full-length IgG1 antibodies. After transient expression in HEK293E cells, IgG1 antibodies were purified with protein A and quantified by measurement of OD280. Table 19 below summarizes the production levels of the germlined derivatives together with the levels of the 68F2 parental antibody. Potencies (in pM) were also measured in a 7TD1 based proliferation assay for each antibody.

[4] = target: T1, eukaryotically produced human IL-6 (Homo sapiens, UniProt P05231); test: Surface plasmon resonance (Biacore), eukaryotically produced human IL-6 coated on CM5 chip; assay type: binding; conditions: periplasmic fractions
T1 construct: purchased Humanzyme HZ-1044; host or cells: Human Embryonic kidney cells

[5] = target: T2, bacterially produced human IL-6 (Homo sapiens, UniProt P05231); test: Surface plasmon resonance (Biacore), bacterially produced human IL-6 coated on CM5 chip; assay type: binding; conditions: periplasmic fractions
T2 construct: His

cynomolgus monkey IL-6 [6] = target: T3, cynomolgus monkey IL-6 (Macaca fascicularis, UniProt P79341); test: Surface plasmon resonance (Biacore), cynomolgus monkey IL-6; assay type: binding; conditions: cy/cyno; periplasmic fractions, 29B11 chain shuffled
T3 construct: His

cynomolgus monkey IL-6 [7] = target: T3, cynomolgus monkey IL-6; test: as above; assay type: binding; conditions: periplasmic fractions, 24D10 chain-shuffled Fabs
[8] = single intravenous administration, cynomolgus monkey, non-compartmental

T2 sequence (P05231 30-212): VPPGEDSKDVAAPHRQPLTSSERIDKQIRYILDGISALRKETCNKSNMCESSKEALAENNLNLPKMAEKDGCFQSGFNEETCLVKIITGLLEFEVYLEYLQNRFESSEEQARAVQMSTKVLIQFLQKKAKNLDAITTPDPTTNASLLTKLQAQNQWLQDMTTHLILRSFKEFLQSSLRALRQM
T1 sequence (P05231 30-212): as above
T3 sequence (P79341 28-212): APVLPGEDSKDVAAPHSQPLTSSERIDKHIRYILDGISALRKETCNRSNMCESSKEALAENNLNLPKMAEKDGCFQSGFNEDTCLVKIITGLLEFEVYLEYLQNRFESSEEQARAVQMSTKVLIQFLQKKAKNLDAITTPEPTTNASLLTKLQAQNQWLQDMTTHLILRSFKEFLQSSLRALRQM

B1: 129D3: final germlined variant of 68F2; 129D3-WT is wild-type IgG1 129D3 (antibody, listed as Lama glama, V domains shown)
VH: EVQLQESGPGLVKPSQTLSLTCTVSGGSITSRYYAWSWIRQPPGKGLEWIGVIDYDGDTYYSPSLKSRVSISWDTSKNQFSLKLSSVTPADTAVYYCARDPDVVTGFHYDYWGQGTMVTVSS
VL: QSALTQPPSVSGTPGQSVTISCAGANNDIGTYAYVSWYQQLPGTAPKLMIYKVTTRASGIPDRFSGSKSGNTASLTISGLQAEDEADYYCASYRNFNNAVFGTGTKLTVL
modifications: IgG1 constant regions
notes: final germlined variant of 68F2; 129D3-WT is wild-type IgG1 129D3
With B1 the “survival relative to control” value (RXF393 cells) was “effective at delaying death of mice relative to control”, the tumor outgrowth (RXF393 cells) was “effective at inhibiting tumor outgrowth” and the “Tm higher than the parental 68F2 antibody” value ([1]; human IgG1) was 3 °C. For the same molecule, the Tm ([1]; human IgG1, 100 μg/ml in PBS, 1 hour) was “around 70 °C”, the half-life ([2]; 5 mg/kg i.v.) was “about 15.6 days” and the “MRT (Mean Residence Time)” value [2, 8] was 22.4 days. The “T½ (elimination half-life)” value [2, 8] was 15.6 days, the “k (mean elimination rate constant)” value [2, 8] was 0.0468 day⁻¹ and the “in vivo potency (survival)” value (IGROV-1 epithelial cells) was “superior to the benchmark CNTO328 IL-6 antibody”.

B2: 129F2: germlined variant of 68F2, IgG1 (antibody, listed as Lama glama, V domains shown)
VH: EVQLQESGPGLVKPSQTLSLTCTVSGGSITSRYYAWSWIRQPPGKGLEWIGVIDYDGDTYYSPSLKSRVTISWDTSKNQFSLKLSSVTAEDTAVYYCARDPDVVTGFHYDYWGQGTMVTVSS
VL: QSALTQPPSVSGTPGQTVTISCAGANNDIGTYAYVSWYQQLPGTAPKLMIYKVTTRASGIPDRFSGSKSGNTASLTISGLQSEDEADYYCASYRNFNNAVFGGGTKLTVL
modifications: IgG1 constant regions
notes: germlined variant of 68F2, IgG1
In the case of B2, the “production level / production yield” value [3] is reported as 9 µg/mL.

B3: 55H1c: 29B11 chain shuffled Fab, periplasmic fraction (antibody, V domains shown)
VH: EVQLVESGGGLVQPGGSLRLSCAASGFTFSSYAMSWVRQAPGKGLEWVSRISSGGISTYYADSVKGRFTISRDNAKNTLYLQMNSLKPEDTAVYYCVRYAWGVQWAFDFWGQGTQVTVSS
VL: AQSVVTQPPSVSGSPGKTVTISCAGTSSDVGYGNYVSWYQQLPGMAPKLLIYDVSKRASGIADRFSGSKSGNTASLTISGLQSEDEADYVCASYRRGGTAVFGGGTHLTVLG
B3 showed a KA ([4]; euk, 29B11 chain shuffled) of 1.02e+10 M⁻¹, a ka ([4]; euk, 29B11 chain shuffled) of 1.13e+06 M⁻¹ s⁻¹ and a kd ([4]; euk, 29B11 chain shuffled) of 0.000111 s⁻¹. The “RANKED euk (off-rate)” value ([4]; 24D10 chain-shuffled Fabs) was 1.01E−04 and 1.06E−04 and 1.13E−04, the Average binding ([4]; average over the IL-6 forms) was 773 RU and 770 RU and 873 RU and the KA ([5]; bact, 29B11 chain shuffled) was 1e+10 M⁻¹. For the same molecule, the ka ([5]; bact, 29B11 chain shuffled) was 1.28e+06 M⁻¹ s⁻¹, the kd ([5]; bact, 29B11 chain shuffled) was 0.000127 s⁻¹ and the “Bact (off-rate)” value ([5]; 24D10 chain-shuffled Fabs) was 1.35E−04 and 1.40E−04 and 1.26E−04. For the same molecule, the KA (cynomolgus monkey IL-6 [6]) was 1.89e+09 M⁻¹, the ka (cynomolgus monkey IL-6 [6]) was 1.16e+06 M⁻¹ s⁻¹ and the kd (cynomolgus monkey IL-6 [6]) was 0.000615 s⁻¹. For the same molecule, the “cyno (off-rate)” value (cynomolgus monkey IL-6 [7]) was 4.17E−04 and 4.30E−04 and 3.90E−04.
